The data set has as its target T1, PhoB~P (phosphorylated response regulator PhoB) (Escherichia coli) (UniProt P0AFJ5).
T1 sequence: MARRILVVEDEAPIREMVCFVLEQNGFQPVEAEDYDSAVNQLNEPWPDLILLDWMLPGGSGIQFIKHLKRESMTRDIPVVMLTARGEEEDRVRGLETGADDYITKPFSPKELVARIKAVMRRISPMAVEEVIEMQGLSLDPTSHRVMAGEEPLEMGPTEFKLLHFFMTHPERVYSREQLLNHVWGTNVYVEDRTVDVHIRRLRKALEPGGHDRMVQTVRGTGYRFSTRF
As to the kind of experiment: EMSA.

Kd data for two substances are collected here from publication PMC8599769.

Read-outs that look alike come from different tables or passages of the source.

In turn, “ATCACATGGTCCTGCTGGAGTTCGTGACCGCCGCCGGGATCACTCTCGGCATGGACGAGCTGTACAAGTAGCTGACCCGGGGAGGGTCGTTCTGTCATAAAACTGTCATATTCCACCGGGAAGGCTTGAGCTCCTAGATACATTCAAATATGTATCCGCTCATGAGACAATAACCCTGATA (double strand) [Decoy DNA (1 PhoB consensus site)]” showed a dissociation constant (Kd) of 200 nM.
Take phnC promoter PhoB site DNA: the dissociation constant Kd (cited from earlier work) was 1500 nM.
